Values of other authors, collected in patent publication US20030166570A1, “Peptide and its use in the treatment of hyperpigmentation conditions” (priority 2001, published 2003).
Ends that are not written are not given here.

Biological target: MC-1 receptor (Homo sapiens, UniProt Q01726)
Conditions: rank order; physiologic range for signal transduction

Chain of MC-1 receptor (Q01726 whole entry): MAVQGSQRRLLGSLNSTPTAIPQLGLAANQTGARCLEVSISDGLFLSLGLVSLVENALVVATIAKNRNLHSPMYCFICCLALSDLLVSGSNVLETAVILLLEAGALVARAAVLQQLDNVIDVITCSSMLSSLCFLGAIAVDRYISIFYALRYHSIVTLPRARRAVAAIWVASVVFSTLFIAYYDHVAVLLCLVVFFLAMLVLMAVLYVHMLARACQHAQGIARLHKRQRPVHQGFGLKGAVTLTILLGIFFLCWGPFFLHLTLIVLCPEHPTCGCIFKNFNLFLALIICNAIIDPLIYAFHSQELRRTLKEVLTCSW

| Substance | relative affinities for the MC-1 receptor and stimulation of cAMP |
| --- | --- |
| Ac-Ser^1-Tyr^2-Ser^3-Met^4-Glu^5-His^6-Phe^7-Arg^8-Trp^9-Gly^10-Lys^11-Pro^12-Val^13-NH2 [α-MSH] | ACTH 1-17=α-MSH>ACTH |
| ACTH: 39-mer polypeptide hormone expressed in skin melanocytes and keratinocytes, derived from POMC (SYSMEHFRWGKPVGKKRRPVKVYPNGAEDESAEAFPLEF-NH2; UniProt P01189 138-176, looked up) | ACTH 1-17=α-MSH>ACTH |
| ACTH 1-10: peptide fragment defined by residues 1-10 of ACTH | no activity |
